Measured values published in paper PMC7418854 (Journal for Immunotherapy of Cancer, 2020).

Key:
recombinant LILRB1 [1] = molecular target: T1, recombinant LILRB1 (Homo sapiens, UniProt Q8NHL6); test: BLI
recombinant LILRB1 [2] = molecular target: T1, recombinant LILRB1; test: BLI + ELISA
recombinant LILRB1 [3] = molecular target: T1, recombinant LILRB1; test: ELISA

T1 sequence (Q8NHL6 24-461): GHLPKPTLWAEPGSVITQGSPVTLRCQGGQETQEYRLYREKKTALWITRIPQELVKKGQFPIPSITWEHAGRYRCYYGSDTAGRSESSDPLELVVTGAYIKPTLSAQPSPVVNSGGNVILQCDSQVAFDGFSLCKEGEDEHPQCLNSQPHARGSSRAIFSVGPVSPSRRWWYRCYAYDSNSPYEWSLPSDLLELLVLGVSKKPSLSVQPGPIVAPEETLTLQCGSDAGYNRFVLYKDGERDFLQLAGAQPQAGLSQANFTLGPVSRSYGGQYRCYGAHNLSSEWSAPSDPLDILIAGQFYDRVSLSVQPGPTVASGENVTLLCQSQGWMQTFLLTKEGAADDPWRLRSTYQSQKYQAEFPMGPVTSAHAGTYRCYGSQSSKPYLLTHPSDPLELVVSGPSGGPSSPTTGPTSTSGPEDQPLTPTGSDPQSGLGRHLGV

Binder | binding result (recombinant LILRB1 [2]) | binding result (recombinant LILRB1 [3]) | also measured
rabbit anti-LILRB1 monoclonal antibody B1-176 (antibody, V domains shown) VH: QSLEESEGGLVKPGGTLTLTCTASGFSFSSSYCMCWVRQAPGKGLELIACIYTDSSGATYYASWAKGRFTISKSSSTTITLQMTSLTAADTATYFCARGWDYEDPGYTDTTYFSLWGPGTLVTVSS VL: ELDLTQTPSSVEAAVGGTVTIKCQASQTIYTNLAWYQQKPGQPPNLLIYAASTLASGVSSRFKGSGSGTEFTLTISDLECADAATYYCQSYYGSSTTGNGFGGGTEVEIK |  |  | Kd (recombinant LILRB1 [1]): ~0.01 nM
humanized anti-LILRB1 antibody Hu B1-176-LALAPG (antibody, V domains shown) VH: EVQLVESGGGLVQPGGSLRLSCAASGFSFSSSYCMCWVRQAPGKGLELVSCIYTDSSGATYYASWAKGRFTISRHNSKNTLYLQMNSLRAEDTAVYYCARGWDYEDPGYTDTTYFSLWGRGTLVTVSS VL: DIQLTQSPSFLSASVGDRVTITCQASQTIYTNLAWYQQKPGKAPKLLIYAASTLASGVPSRFSGSGSGTEFTLTISSLQPEDFATYYCQSYYGSSTTGNGFGGGTKVEIK | binds |  | 
humanized B1-176 with heavy chain Hu-176 VH-2 (W48L), as tested in Figure 3B (antibody, V domains shown) VH: EVQLVESGGGLVQPGGSLRLSCAASGFSFSSSYCMCWVRQAPGKGLELVSCIYTDSSGATYYASWAKGRFTISRHNSKNTLYLQMNSLRAEDTAVYYCARGWDYEDPGYTDTTYFSLWGRGTLVTVSS VL: DIQLTQSPSFLSASVGDRVTITCQASQTIYTNLAWYQQKPGKAPKLLIYAASTLASGVPSRFSGSGSGTEFTLTISSLQPEDFATYYCQSYYGSSTTGNGFGGGTKVEIK |  | binds | 

Now from value to binder, other results behind:

binding result (recombinant LILRB1 [2]) | binding result (recombinant LILRB1 [3]) | Binder | also measured
binds |  | humanized anti-LILRB1 antibody Hu B1-176-N297A (antibody, V domains shown) VH: EVQLVESGGGLVQPGGSLRLSCAASGFSFSSSYCMCWVRQAPGKGLELVSCIYTDSSGATYYASWAKGRFTISRHNSKNTLYLQMNSLRAEDTAVYYCARGWDYEDPGYTDTTYFSLWGRGTLVTVSS VL: DIQLTQSPSFLSASVGDRVTITCQASQTIYTNLAWYQQKPGKAPKLLIYAASTLASGVPSRFSGSGSGTEFTLTISSLQPEDFATYYCQSYYGSSTTGNGFGGGTKVEIK | 
 | binds | humanized B1-176 with heavy chain Hu-176 VH-1 and light chain Hu-176 VL (antibody, V domains shown) VH: EVQLVESGGGLVQPGGSLRLSCAASGFSFSSSYCMCWVRQAPGKGLEWVSCIYTDSSGATYYASWAKGRFTISRHNSKNTLYLQMNSLRAEDTAVYYCARGWDYEDPGYTDTTYFSLWGRGTLVTVSS VL: DIQLTQSPSFLSASVGDRVTITCQASQTIYTNLAWYQQKPGKAPKLLIYAASTLASGVPSRFSGSGSGTEFTLTISSLQPEDFATYYCQSYYGSSTTGNGFGGGTKVEIK | 
